According to PMC5368982, “Engineering Structurally Interacting RNA (sxRNA)”:

Columns and labels:
[1] = biological target: T1, SLBP (histone stem-loop binding protein) (UniProt Q14493 1-270); test: EMSA; without trigger; EMSA: 1x NT2 buffer, 1 mM DTT, RNaseOUT, 50 uL, room temperature 1 h, 1.25 ug SLBP (~37 pmol), native 8% PAGE in 1x TB; RIP: RNAs in 10 mM Tris/100 mM NaCl; pH; settings: protein: recombinant; label: none; alternative fold without HSL
[2] = biological target: T1, SLBP (histone stem-loop binding protein); test: EMSA; with T-1 trigger; EMSA: 1x NT2 buffer, 1 mM DTT, RNaseOUT, 50 uL, room temperature 1 h, 1.25 ug SLBP (~37 pmol), native 8% PAGE in 1x TB; RIP: RNAs in 10 mM Tris/100 mM NaCl; pH; settings: protein: recombinant; label: none; trans three-way junction, bait:trigger 1:1, not a blunt duplex
[3] = biological target: T1, SLBP (histone stem-loop binding protein); test: RIP pull-down with recombinant SLBP; with T-1* trigger; EMSA: 1x NT2 buffer, 1 mM DTT, RNaseOUT, 50 uL, room temperature 1 h, 1.25 ug SLBP (~37 pmol), native 8% PAGE in 1x TB; RIP: RNAs in 10 mM Tris/100 mM NaCl; pH; settings: label: none, trans three-way junction, bait:trigger 1:1, not a blunt duplex

B1: B-1b (structured_RNA)
RNA: GGGAAGAGAGCCCAAACACCAUUGUCAAAAGGCUCUUUUCAGAGCUACACUCCAGAGCU
modifications: none
B1: no binding [1].

B2: B-1b + T-1 (trans-3WJ) (structured_RNA)
RNA 1: B1 RNA
RNA 2: UGGAGUGUGACAAUGGUGUUUG
modifications: none
B2: binds [2].

B3: B-1a + T-1* (trans-3WJ) (mixed)
RNA 1: GGGCAAACACCAUUGUCAAAAGGCUCUUUUCAGAGCCACACUCCA
RNA 2: UGGAGUGUGACAAUGGUGUUUG
modifications: 2'-OMe on trigger (strand 2)
B3: binds [3].
